Usually IC50 stands for the point on the concentration scale where inhibition reaches its midpoint. A higher IC50 goes with lower potency.

What all share (assay): cell-based or functional assay
Experiment [1] concerns the target HIV-1 Env of isolate 98CN009 (CRF07 BC) (HIV-1 isolate 98CN009).
For experiment [2], the target named is HIV-1 IAVI-C18 envelope glycoprotein (Env) on pseudovirus (HIV-1).
Experiment [3] addresses HIV-1 Env of pseudovirus MGRM-AE-001 (clade CRF01_AE) (HIV-1).
In experiment [4] the target is HIV-1 Env of isolate MGRM-D-016 (clade D pseudovirus) (HIV-1).
Experiment [5] addresses HIV-1 MGRM-A-010 Env (pseudovirus, clade A) (HIV-1).
In experiment [6] the target is HIV-1 Env of isolate 93TH305 (HIV-1).
Experiment [7] deals with HIV-1 Env of pseudovirus MGRM-AG-005 (clade CRF_AG) (HIV-1).
The target in experiment [8] is HIV-1 envelope glycoprotein (Env) of isolate MGRM-A-013, clade A (HIV-1).
In experiment [9] the target is HIV-1 Env of pseudovirus MGRM-Chronic-B-024 (HIV-1).
In experiment [10] the target is HIV-1 Env of pseudovirus MGRM-AG-001 (clade CRF_AG) (HIV-1).
The target in experiment [11] is HIV-1 NL43 Env (pseudovirus, clade B) (HIV-1).
For experiment [12], the target named is HIV-1 Env of isolate LAVIC_18 (HIV-1).
The target in experiment [13] is HIV-1 envelope glycoprotein (Env) of isolate MGRM-A-003, clade A (HIV-1).
Experiment [14] deals with HIV-1 Env of pseudovirus MGRM-AG-011 (clade CRF_AG) (HIV-1).
In experiment [15] the target is HIV-1 Env of isolate CAAN.A2 (Acute), clade B, on pseudovirus (HIV-1).
Experiment [16] addresses HIV-1 envelope glycoprotein (Env) of isolate 92RW008, clade A (HIV-1).
Experiment [17] deals with HIV-1 Env of isolate MGRM-D-026 (pseudovirus) (HIV-1).
Experiment [18] addresses HIV-1 Env of isolate MGRM-F1-016 (HIV-1).
In experiment [19] the target is HIV-1 Env of isolate MGRM-AE-006 (HIV-1).
For experiment [20], the target named is HIV-1 Env of isolate MGRM-F1-008 (pseudovirus) (HIV-1).
Experiment [21] deals with HIV-1 Env of isolate MGRM-F1-004 (pseudovirus) (HIV-1).
In experiment [22] the target is HIV-1 Env of isolate JR-CSF (subtype B pseudovirus) (HIV-1) (UniProt P20871).
Experiment [23] addresses HIV-1 Env of isolate MGRM-F1-020 (HIV-1).
The target of experiment [24] is HIV-1 Env of isolate MGRM-D-008 (pseudovirus) (HIV-1).
For experiment [25], the target named is HIV-1 Env of isolate MGRM-F1-006 (pseudovirus) (HIV-1).
Experiment [26] deals with HIV-1 Env of isolate APV_6 (subtype B pseudovirus) (HIV-1).
In experiment [27] the target is HIV-1 envelope glycoprotein (Env) of isolate MGRM-C-010 (HIV-1).
For experiment [28], the target named is HIV-1 Env of isolate 93WR029 (HIV-1).
Experiment [29] has as its target HIV-1 envelope glycoprotein (Env) of isolate MGRM-C-012 (HIV-1).
The target of experiment [30] is HIV-1 Env of isolate MGRM-A-011 (subtype A) (HIV-1).
Experiment [31] concerns the target HIV-1 Env of isolate MGRM-AG-008 (subtype AG) (HIV-1).
Experiment [32] concerns the target HIV-1 Env of isolate MGRM-AG-001 (subtype AG) (HIV-1).
For experiment [33], the target named is HIV-1 Env of isolate MGRM-A-002 (HIV-1).
The target of experiment [34] is HIV-1 Env of isolate MGRM-AE-008 (subtype AE) (HIV-1).
The target of experiment [35] is HIV-1 Env of isolate MGRM-AE-007 (subtype AE) (HIV-1).
For experiment [36], the target named is HIV-1 Env of isolate MGRM-A-004 (HIV-1).
For experiment [37], the target named is HIV-1 Env of isolate MGRM-Chronic-B-024 (subtype B) (HIV-1).
The target in experiment [38] is HIV-1 Env of isolate MGRM-A-005 (HIV-1).
For experiment [39], the target named is HIV-1 Env of isolate MGRM-A-006 (HIV-1).

Chain of 5329_C19 (PGT-136) (antibody) (VH): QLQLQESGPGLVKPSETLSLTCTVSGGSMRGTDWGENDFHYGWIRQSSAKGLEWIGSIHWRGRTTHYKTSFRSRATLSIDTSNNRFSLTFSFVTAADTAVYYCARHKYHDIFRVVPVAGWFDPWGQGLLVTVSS
Chain of 5329_C19 (PGT-136) (antibody) (VL): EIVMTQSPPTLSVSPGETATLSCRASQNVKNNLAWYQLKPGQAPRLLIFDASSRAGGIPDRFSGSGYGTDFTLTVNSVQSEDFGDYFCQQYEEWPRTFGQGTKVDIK
Chain of 5345_I01 (PGT-137) (antibody) (VH): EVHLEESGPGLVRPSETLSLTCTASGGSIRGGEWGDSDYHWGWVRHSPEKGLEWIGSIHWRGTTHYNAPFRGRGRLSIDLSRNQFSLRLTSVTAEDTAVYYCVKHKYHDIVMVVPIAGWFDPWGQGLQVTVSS
Chain of 5345_I01 (PGT-137) (antibody) (VL): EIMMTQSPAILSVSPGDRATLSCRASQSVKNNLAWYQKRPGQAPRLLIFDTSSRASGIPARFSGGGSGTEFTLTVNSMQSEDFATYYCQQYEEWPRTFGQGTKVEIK

Take 1496_C09 (PG9) (TCN-109) (antibody): the IC50 (µg/ml), pseudovirus neutralization was 1.07 µg/mL in experiment [1]; 0.1 µg/mL in experiment [4]; 0.16 µg/mL in experiment [8]; 0.18 µg/mL in experiment [9]; 0.65 µg/mL in [13]; 5.67 µg/mL in experiment [15]. The IC50 (µg/ml), pseudovirus neutralization in [16] worked out at 0.01 µg/mL. In experiment [2], this substance registered an IC50, pseudovirus neutralization of 0.0535 µg/mL. Moreover, the half-inhibitory concentration (IC50) in experiment [3] was 2.97 µg/mL; in experiment [7], 29.7 µg/mL; in experiment [10] it was 8.83 µg/mL; in experiment [12], 0.1 µg/mL; in [14], 0.01 µg/mL. The IC50 neutralization was determined as 0.0375 µg/mL in experiment [5] and 0.687 µg/mL in experiment [11]. In addition, the IC50 (µg/mL), pseudovirus neutralization in experiment [6] came out at 8.12 µg/mL.

With 4838_L06 (PGT-121) (antibody), the IC50, pseudovirus neutralization was more than 50 µg/mL in [17]; more than 50 µg/mL in experiment [20]; 1.67 µg/mL in experiment [21]; more than 50 µg/mL in [24]; 5.33 µg/mL in [25]. In addition, the IC50 (µg/mL), pseudovirus neutralization stood at 0.931 µg/mL in [18], 0.027 µg/mL in experiment [22], 0.167 µg/mL in experiment [23] and 0.018 µg/mL in experiment [26]. In experiment [19], this substance returned an IC50 of more than 50 µg/mL. In [11], this substance displayed an IC50 neutralization of more than 10 µg/mL.

Take 4877_D15 (PGT-122) (antibody): the IC50, pseudovirus neutralization in experiment [17] was more than 50 µg/mL; in experiment [20], more than 50 µg/mL; in experiment [21], 1.29 µg/mL; in experiment [24], more than 50 µg/mL; in experiment [25], 3.27 µg/mL. Further, the IC50 (µg/mL), pseudovirus neutralization worked out at 4.81 µg/mL in experiment [18], 0.057 µg/mL in experiment [22], 0.321 µg/mL in [23] and 0.019 µg/mL in [26]. Further, the results for the IC50 neutralization in [5] and in experiment [11] were 1.68 µg/mL and more than 10 µg/mL, respectively. In [19], this substance returned an IC50 of more than 50 µg/mL.

For 5114_A19 (PGT-128) (antibody), the IC50 (µg/mL), pseudovirus neutralization in experiment [27] is more than 50 µg/mL; in experiment [29] it was 0.058 µg/mL; in [30], more than 50 µg/mL; in [31], 0.668 µg/mL; in experiment [32] it was 4.73 µg/mL; in [34] it was more than 50 µg/mL. Further, the IC50 (µg/mL), pseudovirus neutralization in experiment [35] is more than 50 µg/mL. In addition, the neutralization IC50 in [6] amounted to 0.006 µg/mL. Further, the half-maximal inhibitory concentration (IC50) is more than 50 µg/mL in experiment [28]; 0.149 µg/mL in experiment [33]; more than 50 µg/mL in experiment [36]; more than 50 µg/mL in experiment [38]; more than 50 µg/mL in experiment [39]. This substance also came in with an IC50 neutralization in experiment [37] of more than 50 µg/mL.

Regarding 5136_H01 (PGT-131) (antibody), the IC50 (µg/mL), pseudovirus neutralization in experiment [27], in experiment [29], in experiment [30], in experiment [31], in experiment [32] and in [34] was more than 50 µg/mL each time. The IC50 (µg/mL), pseudovirus neutralization in [35] is 0.026 µg/mL. Besides, the neutralization IC50 in experiment [6] stood at 0.016 µg/mL. Besides, the IC50 in [28], in [33], in [36], in [38] and in experiment [39] was more than 50 µg/mL throughout. In [37], this substance came in with an IC50 neutralization of more than 50 µg/mL.

For 5145_B14 (PGT-127) (antibody), the IC50, pseudovirus neutralization in [17] is more than 50 µg/mL; in experiment [20] it was more than 50 µg/mL; in [21] it was 0.068 µg/mL; in experiment [24], more than 50 µg/mL; in experiment [25], 7.17 µg/mL. Moreover, the IC50 (µg/mL), pseudovirus neutralization is more than 50 µg/mL in [18], 0.018 µg/mL in [22], more than 50 µg/mL in experiment [23] and 0.04 µg/mL in experiment [26]. This substance had a concentration for half-maximal inhibition (IC50) in experiment [19] of more than 50 µg/mL.

With 5147_N06 (PGT-130) (antibody), the IC50 (µg/mL), pseudovirus neutralization in experiment [27], in [29], in experiment [30], in experiment [31], in experiment [32] and in experiment [34] was more than 50 µg/mL in each case. This substance also had an IC50 (µg/mL), pseudovirus neutralization in experiment [35] of 0.083 µg/mL. Further, the figures for the IC50 neutralization in experiment [5], in experiment [11] and in experiment [37] were 0.0054 µg/mL, more than 10 µg/mL and 5.78 µg/mL, respectively. The same substance registered a neutralization IC50 in experiment [6] of 0.021 µg/mL. Moreover, the half-inhibitory concentration (IC50) in [28] was 34.3 µg/mL; in [33], 0.01 µg/mL; in [36], more than 50 µg/mL; in [38], more than 50 µg/mL; in [39], more than 50 µg/mL.

5329_C19 (PGT-136) (antibody): the IC50 (µg/mL), pseudovirus neutralization in [27], in experiment [29], in experiment [30], in experiment [31], in experiment [32] and in [34] was more than 50 µg/mL each time. Moreover, the IC50 (µg/mL), pseudovirus neutralization in experiment [35] is more than 50 µg/mL. The IC50 neutralization in [5] is more than 10 µg/mL; in experiment [11], more than 10 µg/mL; in [37], more than 50 µg/mL. The substance further displayed a neutralization IC50 in [6] of 20.2 µg/mL. The IC50 in experiment [28], in experiment [33], in experiment [36], in [38] and in experiment [39] was more than 50 µg/mL each time.

On to 5343_B08 (PGT-135) (antibody), for which the IC50 (µg/mL), pseudovirus neutralization is more than 50 µg/mL in [27]; 0.017 µg/mL in experiment [29]; more than 50 µg/mL in [30]; more than 50 µg/mL in experiment [31]; more than 50 µg/mL in experiment [32]; more than 50 µg/mL in experiment [34]. The same substance displayed an IC50 (µg/mL), pseudovirus neutralization in experiment [35] of more than 50 µg/mL. Moreover, the results for the IC50 neutralization in experiment [5], in experiment [11] and in [37] were more than 10 µg/mL, 6.79 µg/mL and more than 50 µg/mL, respectively. This substance came in with a neutralization IC50 in experiment [6] of more than 50 µg/mL. Besides, the half-inhibitory concentration (IC50) in [28], in experiment [33], in [36], in experiment [38] and in [39] was more than 50 µg/mL each time.

Turning to 5345_I01 (PGT-137) (antibody), the IC50 (µg/mL), pseudovirus neutralization was more than 50 µg/mL in experiment [27]; 0.102 µg/mL in experiment [29]; more than 50 µg/mL in experiment [30]; more than 50 µg/mL in experiment [31]; more than 50 µg/mL in experiment [32]; more than 50 µg/mL in [34]. In experiment [35], this substance gave an IC50 (µg/mL), pseudovirus neutralization of more than 50 µg/mL. For the same substance, the neutralization IC50 in experiment [6] is more than 50 µg/mL. Moreover, the half-inhibitory concentration (IC50) in [28], in [33], in [36], in [38] and in experiment [39] was more than 50 µg/mL in each case. The same substance displayed an IC50 neutralization in experiment [37] of more than 50 µg/mL.

PGV04 (antibody) yielded an IC50 (µg/mL), pseudovirus neutralization in [6] of 0.255 µg/mL.

In the case of VRC01 (antibody), the half-inhibitory concentration (IC50) is 0.517 µg/mL in [18] and 1.89 µg/mL in experiment [23].

The values above are taken from patent publication US20250320281A1.
